Test results from the DeepSol protein solubility set.

Assay: soluble on expression in E. coli; label from the status in PepcDB or PDB records

Row | Sequence | soluble on expression in E. coli
1 | MSLVQSAVLGFPRIGPNRELKKATEGYWNGKITVDELFKVGKDLRTQNWKLQKEAGVDIIPSNDFSFYDQVLDLSLLFNVIPDRYTKYDLSPIDTLFAMGRGLQRKATETEKAVDVTALEMVKWFDSNYHYVRPTFSKTTQFKLNGQKPVDEFLEAKELGIHTRPVLLGPVSYLFLGKADKDSLDLEPLSLLEQLLPLYTEILSKLASAGATEVQIDEPVLVLDLPANAQAAIKKAYTYFGEQSNLPKITLATYFGTVVPNLDAIKGLPVAALHVDFVRAPEQFDEVVAAIGNKQTLSVGIVDGRNIWKNDFKKSSAIVNKAIEKLGADRVVVATSSSLLHTPVDLNNETKLDAEIKGFFSFATQKLDEVVVITKNVSGQDVAAALEANAKSVESRGKSKFIHDAAVKRRVASIDEKMSTRAAPFEQRLPEQQKVFNLPLFPTTTIGSFPQTKDIRINRNKFNKGTISAEEYEKFINSEIEKVIRFQEEIGLDVLVHGEPERNDMVQYFGEQINGYAFTVNGWVQSYGSRYVRPPIIVGDLSRPKAMSVKESVYAQSITSKPVKGMLTGPITCLRWSFPRDDVDQKTQAMQLALALRDEVNDLEAAGIKVIQVDEPALREGLPLREGTERSAYYTWAAEAFRVATSGVANKTQIHSHFCYSDLDPNHIKALDADVVSIEFSKKDDANYIAEFKNYPNHIGLGLFDIHSPRIPSKDEFIAKISTILKSYPAEKFWVNPDCGLKTRGWEETRLSLTHMVEAAKYFREQYKNEGHHHHHH | soluble
2 | MSLVRNMTIASELGYLHVPEGVLIDLKKVDSLRDDEIVLMCTGSQGEPMAALSRMANGDHKVQVGHGDTVILASSLIPGNENAVFRIINGLTRLGARVVHGGNAKVHVSGHASAGELLYCYNVLKPKNVMPVHGEVRHLVANGALAVRTGVPADRVVLAEDGVVVDLVDGRASVVGAVPCGYVYVDGSSVGEITDAELKDRRILGEEGFVSVFAVVDSATGKVLAGPQILARGFAEDDKVFQDIQPEVVKALEDAIAGGATDTHQLQQVMRRVIGRWVSNRLRRRPMIVPVVVEAEGHHHHHH | soluble
3 | MSLVSLPKLSAKIIIRLIYIYQIGISPILGHHCRFSITCSQYGINSIRNFGILKGCWKTCIRILKCHPFNKNDNTQEGHHHHHH | soluble
4 | MSLWRLKFFLDFEKEEKWLEEMAWKGYQLESTTFGYTFRYTEPEDATIRIDHRVFSRKSEFINYCTLFEDSGWEHIAGNRWSGTYYFKKVNEESEDDIFSDPMSRAGKYKRLSKTEGHHHHHH | not soluble
5 | MSLWRSTVARAPLDARERKNLVAHVQSAQAHESAQHAELAKLRASVNVMKAAEATPRNDEAGQDSAMIPMAGPGVRIILDDANAAPADELGDKDMRKLVNAVWQSGAEAVAINGHRIGPRTAIRSAGSAITVDYVSLSRPYVVEAIGSPQKLPAELADTPGGRWMTYLRDNSSITYQVTTKDRVSVPGSKASVSHARPHREGHHHHHH | soluble
6 | MSLYATMESVRLQSEAQQLAEMILQSETAENYRNCYKRLQEDEEAGRIIRSFIKIKEQYEDVQRFGKYHPDYREISRKMREIKRELDLNDKVADFKRAENELQSILDEVSVEIGTAVSEHVKVPTGNPYFDGLSSCGGGCGSGGSCGCKVSEGHHHHHH | soluble
7 | MSLYELQKVIKMDTETEDVPMFTVQNLPREDIYKTIGEMAIIVPMKNEKLHLVDGVLKAIPHKSPIIIVSNSKRKGPNRFKQEVDLVKHFCNLTHSKVIMIHQRDPGLAEAFRETGYEDILDEKGLVRSGKGEGMLIGIMLAKAIGAKYVGFVDADNYIPGAVNEYVKDYAAGFLMSESEYAMVRLHWRHKPKVSRGTLYFKKWGRVSEITNRYLNQLISEKTAFETTIMVTGNAGEHAMTMKLAEILPFSTGYSIEPYEIVYLLERFGSWENVEEFQDVFDQGIEIFQIETLNPHFHEDKGQEHVKEMVLLSLTTIYHSKLASERLKRQILEDLRMHGIIKEDEEPPKPRVMRPIKDIDIKKWMKTLESNQETLLRFDLEGHHHHHH | not soluble
8 | MSLYYICPYFLDKNGHRVQKTMVGKVALDEQKLTPQKFSITYPLIINLQDEKVKTKVNEDIVNQVSELFKNQVLLTEKIDLSEVFGAYEIGVNRNYILSILFSIYTYMNRAAHGLTVYSSITVNTRTGKVYSFSDLFNPKMNYLGELTTIVKKYIKDNNIQLIEDYKGVTNDQEFYLTNDKLVLYYQVYAYTPYYYGLFRIPIPYTEIKNLLGPMSPINNLIEGHHHHHH | not soluble
9 | MSMERSLEAWEEVQRHGQDLADRLAQGFTGLIHINPPSFPWPPNHHHLHKAKLFDLEFPTQHFSVIKDSRFSINQPINGVTAILDIGNKIGQAGVDFGAGLNVMVQQFFRRLPIPFLHEDNNKLVVSVDGDKSTRSHRAYVITKGDLGMATERLRDSGFSKTDDTASVTMSEEEVADSYLRAAGLLGRSKGTIDTSSSYDSRTNGMEHSLAARGDLWRVEASHSSSTASDGNSSLFLLQLGPLLFLRDSTLLLPLHLSKQHLLWYGYDRKSFMDLQFPNGQLTYVSGEGLTTSAFVPFCGGLLQAQGQYPGDMRFSYSCKNKCGTRITPMVHWPDKSFGLDLSQPLAWRRSGLLMKPTIQVSVCPTFGGSNPGIKAEVIHSLSDDLNLICGYALNAHPSAFASVAFGRSKWNGNIGRTGIVVRADTPLASIGQPSFSIQLNNAFEF | soluble
10 | MSMSNGDAQKDTKTTAETKQTEQKTADSKKSNTQNSEFSLESQYFNDIKKVDGLETIQNPENILALVNKQYALPGNYEPSDLVIPDVEFSFEEKIQKRYIRKEAADALKTMFDAAKKEGYELAAVSGYRSYDRQKVIFDNEVSLKGERKAKEAVAYPGESEHQTGLAMDISSRSNGFELNEAFGSTADGKWVQDNAYKYGFIIRYPKNKEDITKYEYEPWHLRYVGKKAAKVIQDNDLTLEEYFEKVKKILEHHHHHH | not soluble
11 | MSNALRGGPDFLLSVDSPVNIPSAFWSTLSPMTPRPRLLLTAALLALVPAAQAADLRLYPTLGEVTSQPLKVEGGAVTVPFPKADWAWVVPGSVRLLGVPVTRTRVTPGVNVLRAHEGEAVRVLRGGLNLKGTLADAEALLVQLDSGEYLTVRPDELAFSTRPPSSRDVADVKVTFETGGAGSANLLYQTRALSWKPRYELDASGDAATLRALAEIRNAGDQSFSGSTDLYAGDVRLVPENVPMPTLRWWENSPRPPAARAMPLSPRTALSRLSARLEHHHHHH | not soluble
12 | MSNDLTQITQRSLDEQVIGNLNRLQEQGLEMPPGYSPQNALKSAFFELTNNSGGNLLQLAANNPETKTSISNALLDMVIQGLSPAKKQCYFIKYGNKVQLMRSYFGTMAVLDRVTGGADITPVVVREGDVFEIAMDGPDLVVAKHETAFENLDNDIKAAYVVIKLANGKEVTTVMTKKQIDKSWSKAKTKNVQNDFPEEMAKRTVINRAAKYLINTSNDNDLFVQAAKDTLENEFERKDVTPEREEQAAVLEEKLFSNNIKAVDQENENERITRVADVPEQPDIEQAKPIEKDNLTKVADQILEEPVQETLDVMAGYETNQKESEADVSTIEEDDYPF | not soluble
13 | MSNEEIKNKDEQLQQDAVETEAEVVGTDADIDWNQAADEIDEKEAKIAQLEAALLVSEERVKEQQDSVLRARAEVENMRRRSEQEVDKARKFALSRFAEELLPVIDNLERAIQAADGEVEAIKPLLEGVELTHKTFVDTIAKFGLKEINPHGEVFNPEFHQAMSIQESAEHEPNTVMFVMQKGYELNGRVLRPAMVMVSK | not soluble
14 | MSNHDQLHRYLFANHAVRGELVSVNETYQQVLANHDYPPAVQKLLGEMLVATSLLTATLKFDGDITVQLQGGDGPLTLAVINGNNRQEMRGVARVKGEISDDSTLQEMVGNGYLVITITPAQGERYQGVVALEGETIAACLENYFMQSEQLPTRLFIRTGHVADKAAAGGMLLQVLPAQERNEDEFDHLAQLTATIKAEELFTLPANEVLYRLYHQEEVTLYEPQNVSFRCTCSRQRCADALVTLADDDVTEMLEQDGNIDMHCEYCGNHYLFDAVDIATLKNGNSASSEQIH | not soluble
15 | MSNPLAVDVPTFTKLHNVAQWLSQQPPSPRLFDQKENGFSQNFQPFLKTVNSCTIPDDLHEEMMRLKRKENAFKTALCKTFQLTRACSYGEQCKFAHSVEELQLKQKNRGVNHPKYKTVLCDNFSRTGHCKYGTKCQFIHRAVEPTPAQNPLMPQFSSWFAPSSGLSREFLDNFGASASSSSTDFS | not soluble
16 | MSNTIRLSGIAYESLVNGPGIRRVFFSQGCKHNCIGCFNPDTHDFNGGEERDIEELIKDLADNPFIDGVTFSGGDPLEQANKFIYIAKAARELGLNIWSYTGYKFEYLLEHANEFNKWKEYLENIDVLVDGKFDINKKEDGLKFRGSSNQRIINVKESLKEGKVIELEFLEHHHHHH | not soluble
17 | MSNTLNHTSSRQIVRHYTHSQKRCKHLMQYFVSANGLFELKVKIYAFLFSMILEGKCRSVSIIADISCFFLFHFHAIRNAFYSIHPTYRAEGENERLTLLLIAQGYALSL | not soluble
18 | MSNTTGQWCDGNSVELLINGEDFYARVFECIRAARKEVLIETFIIFEDRIGEGLQQALLQAAANGAKVVVTVDDYGTSDLSSVFVKTMIDAGIQIQLFDPRPRFMGMRTNLFRRLHRKVVVIDGELGFIGGINYSVDHMTDTGVTAKQDYAVLVRGPIVGDIHHSALNMLSKVVRDKLPPIALKLDRAGDASMLLAER | not soluble
19 | MSNVLTEIDSQYPYMTKNEKKIAKFILNSPQKVIKMRSQDLASLLDISTSSVIRFSKKITDGGFHDLKINISKYVPKASSIYNVELMNNESTESLRTKLHTRTTRALNHANNELNDKTIDQICHCLKRSETIFIYGFGASFVVATDLYQKLSRIGLNIQLVQETHIFATLLATHNSNDSVILITNNGTQSEMQSMVKVIDDYHIPIITITSTRDNPVAQASNIVLTYGKTDENEMHMGATTSLFAQMFTIDILYYRYVALNYHASLDFITQSKMALDNYRKHLSNINFKH | not soluble
20 | MSPAYLCARPRTRASVTFRPTCGVNLPFHADRARTVSTSTNSATVLWLGYQAPNSISTAVSGAVANHAAKDLQKFQTALQSRNPDQRKVVIGYSYGSTVAGKAASSSELDVRARHFRGDGYSIALNNAVEIKGLEHHHHHH | not soluble
21 | MSPILAKNIVYVAQIKGQITSYTYDQFDRYITIAEQDNAEAIIIELDTPGGRADAMMNIVQRIQQSKIPVIIYVYPPGASAASAGTYIALGSHLIAMAPGTSIGACRPILGYSQNGSIIEAPPKITNYFIAYIKSLAQESGRNATIAEEFITKDLSLTPEEALKYGVIEVVARDINELLKKSNGMKTKIPVNGRYVTLNFTNVEVRYLAPSFKDKLISYITDLEHHHHHH | soluble
22 | MSPLNFTHILTQTVDELSESESYKGLFHQHKDGEPLPSPRVLCDVIELARSILFPGYYGNSTVNSRTINYHIGVNVEKLFNLLTEQILAGLCFGNGDRCDECTEAKREEAARLAAKFISKLPHLRRVLATDVEAAYNGDPAAQSFGEVIFCYPAIKAISNYRIAHELLELGVPLIPRIITEMAHSETGIDIHPGARIGTHFTIDHGTGVVIGATSIIGNNVKLYQGVTLGARSFPLDADGKPIKGIPRHPILEDNVIVYSNATILGRITIGRDATVGGNIWVTENIPAGARIVQTKAKKLEHHHHHH | soluble
23 | MSQDIFTRDNLLRVENPNILVGESPVKYRVEEIYLDGKLKKAEDVDEEEKSYGIFMHSLVLSNYAEVMNVSHKKLDVIRDEKEKAIFYFTEEKGFDKSLIESIVPKVEAFSLNEDKLKVSTHIINEKMRIISRGTPDELLKRCSYILLDSKIVKKTRKIYREINRVLNDMINRCCTVYALAIKDVSKTDIITNVDAYIDGMTLVALIGMCRA | soluble
24 | MSQGQSKKLDVTVEQLRSIYHQFHDILEEKTDLHLPKKEYDDDAVRREVQIQLQEFLLSAMTMASKSLEVVNADTVGKTVKQLIMESQEKYMEPFDLDLNEQVRKMYQEWEDETVKVAQLRQTGPAKINEVYNNSKDEYLAQLDGRIGVLQARMMQQQSADHDDSTDDADDHINWEHIKQDYVASLNELYQTQQDLPKVRYNVEKVKRLMDFLEED | soluble
